± gives the standard deviation of the averaged measurements.
Tested on: ATP
Assay: switch fluorescence ratio, 500 uM ATP over buffer (Cy3 cluster intensity, sum of 5 cycles each) (fold (ratio)); higher = stronger signal-on switching upon ATP binding; sequences stand for … in TCGTCGGCAGCGTCAGATGTGTATAAGAGACAGTTTTTTTTTTTTTTTTTTTTTTTTT…TC
Conditions: aptamer strand: ATP DNA aptamer (quencher-CACCTGGGGGAGTATTGCGGAGGAAGG + anchor), 100 nM annealed; ATP concentration: 500 uM
Outline: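 Five buffer/ATP imaging cycles were run on Cy3-labelled switching-strand clusters on a modified Illumina MiSeq flow-cell, with NaOH stripping and re-annealing between cycles. In each cycle, clusters annealed to 100 nM quencher-labelled ATP aptamer were imaged in selection buffer, then after 15 min with 500 uM ATP at 22 °C. Per cluster, the fluorescence ratio is summed target-cycle over summed buffer-cycle Cy3 intensity, averaged per switch-domain sequence. Only clusters within 100-1000 RFU were kept.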
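Further: ATP exposure 15 min at 22 °C before imaging.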

Sequence	switch fluorescence ratio
TGAGGGGCGA	0.989 ± 0.028
CAGGAGGAAT	1.242 ± 0.0098
TCTGGGCCGG	0.989 ± 0.034
AGGATGGAGG	1.035 ± 0.0019
TGCAAATTTT	1 ± 0.036
GAAAGTTCGA	0.987 ± 0.01
ACTAAGCTTG	1 ± 0.033
CGTTAGTAAA	0.9862 ± 0.0035
ATCCGCGATT	4.88 ± 1.1
GACATAAAAG	1.03 ± 0.053
TTTGGGGGCA	0.989 ± 0.041
TCTATAGTTC	1.01 ± 0.034
GGGCAAGAGT	1.03 ± 0.024
ATTACTAAAT	1.01 ± 0.02
GGGTAATATG	1.01 ± 0.049
CTTTTGGTTT	0.975 ± 0.032
AGCGTTGTG	1.01 ± 0.044
CATGTTGTAT	0.98166 ± 0.00075
TTTGGAGGGA	1.48 ± 0.8
GGAACTTGTT	0.99 ± 0.012
GGGGGCTCTG	0.999 ± 0.028
TCTAGTCGAA	1.02 ± 0.036
TCGGTTACAT	0.983 ± 0.016
ACTAAAGACA	1.0077 ± 0.00019
CCAGGAAGGT	1.0204 ± 0.00069

Sequence	switch fluorescence ratio
GGAGTTATAT	1.105 ± 0.01
AGGATGACAG	0.998 ± 0.04
TTTAGACGTG	0.976 ± 0.012
TTCGTTGGAC	1.01 ± 0.012
ATGTATTCGC	0.983 ± 0.014
AGAAAGCGAC	1.17 ± 0.093
AATAAACAGC	1.006 ± 0.0078
TTAAACAAGC	0.998 ± 0.017
TTTTCCATTA	1 ± 0.044
ACGGTGATGG	1.018 ± 0.0071
GTTCGCATTG	1.08 ± 0.024
TTCTGTGGGG	1.01 ± 0.017
ATAGGGGTGG	1.03 ± 0.018
GAGTCTAAGT	0.996 ± 0.026
AAAGATATCT	0.979 ± 0.022
TACTGCAGAT	1.002 ± 0.0025
GATTAGGCGA	1.023 ± 0.0064
ACGCTTGAAT	1.01 ± 0.023
GTTGCCTTGC	1.06 ± 0.011
CGGGTCGAGC	1 ± 0.03
GCTGAAGGGT	1.012 ± 0.0019
TTGCTGAGAC	1.24 ± 0.3
TTTCGAAAGG	0.983 ± 0.043
ACGACCGACA	1.95 ± 0.29
GTGGTATCGG	0.989 ± 0.029

Sequence	switch fluorescence ratio
GAAATTAGTT	0.991 ± 0.018
CAGGGGGGCG	1.04 ± 0.088
GACGTGTTG	1.01 ± 0.025
TTGGGGCACA	1.01 ± 0.031
GGGGGCATTT	1 ± 0.031
TCGGGTACTG	0.979 ± 0.093
AAACTGGGGC	1.12 ± 0.022
AGGGGCAGCT	0.977 ± 0.024
GCTGCGGGAT	1.16 ± 0.15
GGATATTGTC	0.991 ± 0.024
CGAGCATTTA	1.325 ± 0.012
TTATGTAGTA	1 ± 0.019
CGCTCACGGT	1.066 ± 0.0026
TAAGTAGATT	0.995 ± 0.018
GTGGGATCCG	0.998 ± 0.014
ACTTCTTTGT	1.1 ± 0.11
GCTCTTGACA	1 ± 0.011
TAGGGGTGTT	1.06 ± 0.12
CTAGGGGTTT	1 ± 0.034
TAAATAGGGC	1.02 ± 0.045
TCAAATTTTG	0.999 ± 0.021
GTCGTATTTG	0.9822 ± 0.0057
ATATAGAAAG	1.02 ± 0.045
TAGGGGGAT	1.01 ± 0.011
TCTGGTGTTT	0.986 ± 0.024

Sequence	switch fluorescence ratio
TTACGAGGGG	0.994 ± 0.024
AAAGGGGGTG	1.02 ± 0.047
GTCGTTGTTC	1.03 ± 0.027
ACTTGACGTG	1.01 ± 0.059
AGTAAGATCA	0.992 ± 0.025
CCAATGTCTC	1.08 ± 0.013
GACGGGGAAG	1.08 ± 0.069
ATTGGGTTAG	0.975 ± 0.032
TAAGTAAAAT	0.9968 ± 0.0089
TAAAAAATAT	0.967 ± 0.043
TGGTTACCGA	1 ± 0.014
AGTTGTATGT	0.951 ± 0.037
TGAGGTTTTT	1.28 ± 0.59
TCGTAGAAGG	0.991 ± 0.048
GAGCTGGGGA	0.983 ± 0.012
AAGTCGAGTC	0.996 ± 0.018
TATTGCTTCA	1.03 ± 0.016
GTTGGGTTAT	0.982 ± 0.017
AGGGGTGCAG	0.995 ± 0.01
TGGGTAGTAC	1.04 ± 0.039
ATAACGAATG	1.01 ± 0.024
GTTGATGTAT	0.987 ± 0.021
TGCTGAAGGG	1.04 ± 0.03
ATTTAAGGGA	0.982 ± 0.026
TTGGAAGCTT	1.23 ± 0.22

Sequence	switch fluorescence ratio
ATGAGGGG	1.01 ± 0.043
TAGGTGTTTT	1.05 ± 0.047
GGGATCGTAA	0.987 ± 0.016
TCACGTTCTG	1.03 ± 0.029
ACAGCGCTTT	1.03 ± 0.025
TCCAGGGGGC	1.18 ± 0.16
TATGCAGACT	0.956 ± 0.092
TTAGGGGCGT	0.989 ± 0.013
CCATAAAGGG	1.07 ± 0.098
CTGGTGTGGC	0.982 ± 0.028
TGGCGGGGTT	0.986 ± 0.022
CCCCGTGTAT	2.48 ± 0.046
CGATTAAGAT	1.02 ± 0.021
GAATAAGTCC	1.04 ± 0.028
ACAGCGCGAC	1.32 ± 0.017
GCGGCGGAAG	1.025 ± 0.0042
GTTGGGGCTT	1.021 ± 0.002
AGGTATGCAG	0.9983 ± 0.0044
GCGAACGGGG	1.01 ± 0.049
AAAGGTGTTG	1.16 ± 0.23
GAAAAAACAC	1.16 ± 0.1
TTATTACGGA	1.03 ± 0.013
AAGGTTCGGG	0.994 ± 0.018
CAATGTTGAT	1.01 ± 0.026
GTATAAGAGG	0.991 ± 0.019

Sequence	switch fluorescence ratio
ATATAAGGGA	1 ± 0.019
GCGAGTACCG	1.02 ± 0.032
AGGATGATGT	1.01 ± 0.032
CGTTTGTTGC	0.974 ± 0.034
TAGGAAAGGC	0.982 ± 0.027
CGTATTTTAG	1 ± 0.029
CGCGATAGTA	1.27 ± 0.026
ATGATGGG	1.01 ± 0.017
TGCGGGGCGG	1.02 ± 0.034
TATGATATTA	0.9907 ± 0.0064
TAGCTTGGGG	0.9985 ± 0.0046
TTTTATGGAC	1.03 ± 0.03
GGTCCTCTTT	0.98275 ± 0.00076
AAAGGCTGAA	1.03 ± 0.048
GATTAGTGTG	0.995 ± 0.05
CGGTGTGTAG	0.983 ± 0.062
CAAGTGACTT	1.02 ± 0.016
GCTGGTTAGG	1 ± 0.032
ATTTTTAGCT	1.02 ± 0.031
GAAATTAGCC	1.053 ± 0.0092
TTTTCACGTT	1.07 ± 0.095
TGGGGTTAAG	0.977 ± 0.025
TACGGGAATG	1.02 ± 0.036
CTCGCATGCA	1.2 ± 0.035
AAAGGCTGGG	1.04 ± 0.087

Sequence	switch fluorescence ratio
GGGCAGGGAG	1 ± 0.017
TTAGGATTGG	0.986 ± 0.025
TCCTCAGCGT	3 ± 1
GATTTGCTAG	0.997 ± 0.023
TTAGGGGATC	1 ± 0.025
TTGTCTAGGT	1.01 ± 0.013
AATACGGGAC	1.303 ± 0.0093
TTACATATCT	1.03 ± 0.0043
TATGATGGTG	1.04 ± 0.035
ATTCGATTTC	1 ± 0.033
CCGTTGTGAA	1.043 ± 0.0012
TACCCGGGGT	0.9827 ± 0.0097
TTCGAAGATT	1 ± 0.051
AGGTTGGACT	0.99145 ± 0.00056
AAAGAAAGGG	1 ± 0.029
ACGGTTAGTC	1.04 ± 0.016
TCAGTTTACT	0.998 ± 0.025
AATGGGGGAT	0.988 ± 0.029
GCAATATGGG	1.84 ± 0.2
ACGTTATAAG	1.1 ± 0.011
TTAAGGCCCG	1.01 ± 0.012
TGGGTAGGAG	0.987 ± 0.025
TTTTAGAGT	0.988 ± 0.024
CCATCGGACA	1.016 ± 0.0064
GTTATGCTCT	1.01 ± 0.014

Sequence	switch fluorescence ratio
AAGTAGCCGT	1.19 ± 0.19
GTGAGGCGGT	0.968 ± 0.017
CATTTGGTCC	1.008 ± 0.0012
AAGACATGGG	1.002 ± 0.0021
AATTAGCTGA	1.01 ± 0.029
GCGGGAACGG	0.992 ± 0.017
TGAGTGTCTG	0.966 ± 0.019
CTCTGAAGCT	1.06 ± 0.017
TTCCCGTTGA	1.14 ± 0.027
GATTTTTGAG	0.99 ± 0.017
AAATGGTCT	1.016 ± 0.01
CAAGTATATT	0.968 ± 0.032
GGGGGGTT	0.9904 ± 0.005
CACGAGGTTG	0.992 ± 0.02
AGGGGCCATT	1.009 ± 0.0098
ATTATCACGA	0.989 ± 0.014
CATCTCTTGC	1.07 ± 0.036
TATTCGCATC	2.12 ± 0.41
TGTAGTTGGT	1.014 ± 0.0096
AAACCGGAAC	2.26 ± 0.1
ATAGGACGGG	0.967 ± 0.028
TCAGCATGGT	1.04 ± 0.091
CACTATAGCG	1.042 ± 0.0098
CAGCTTGGAT	0.977 ± 0.013
GGGTTTGTTT	1.02 ± 0.046

From the supplement of paper PMC10126150
